In test [1] the target is recombinant human IGF-1R protein (R&D Systems, Cat 391-GR) (human) (UniProt P08069). Kind of test: direct ELISA, rhIGF-1R coating, antibody at 5 µg/ml.
Test [2] deals with recombinant murine IGF-1R protein (R&D Systems, Cat 6630-GR/Fc) (murine) (UniProt Q60751). The test can be described thus: direct ELISA, rmIGF-1R coating, antibody at 5 µg/ml. A general note: In an ELISA, binding on a coated surface is turned into a signal by an enzyme label.
Test [3] deals with recombinant human IGF-1R protein (R&D Systems, Cat 391-GR) (human) (UniProt P08069). Kind of test: direct ELISA on rhIGF-1R coating, dose response.
Test [4] shares this target. Kind of test: direct ELISA, rhIGF-1R coated, goat anti-mouse IgG-HRP, TMB, OD 450 nm; Prism sigmoidal dose-response (variable slope) fit.

Changes are numbered by the printed parent chain.

B1: 816C12 (antibody, V domains shown)
VH: EVQLQQSGPELVKPGASVKMSCKASGHTFTSYVLHWMKRKPGQGLEWIGYINPHNDVTKYNENFKGKATLTSDKYSSTVYMEVSSLTSEDSAVYYCVSTAYYGNGRYFDVWGAGTTVTVSS
VL: DIQMTQTTSSLSASLGDRVTISCRASQDINNYLNWYQQKPDGTVKLLIYYTSRLHSGVSSRFSGSGSGTDYSLTISNLEQEDIATYFCQQGNTLPWTFGGGTKLEIK
Usually EC50 stands for the midpoint of the concentration-response curve. Turning to B1, the OD in test [1] stood at 2.62 OD 450 nm. For the same molecule, the OD in test [2] worked out at 0.065 OD 450 nm. In addition, the EC50 in test [3] stood at 0.41 nM. In test [4], the BOTTOM (best-fit value) was 0.116 OD (450 nm), the EC50 was found to be 0.417 nM, the LOGEC50 is -9.38 log C [M] and the TOP (best-fit value) is 2.44 OD (450 nm).

B2: 810D12 (antibody, V domains shown)
VH: EVQLQQSGPELVKPGASVKMSCKASGHTFTSYMLHWVKQKPGQGLEWLGFINPYNDVTKYNENFKGKATLTSDKSSSTAYMELNSLTSEDSAVYFCVTTAYYGNGRYFDVWGAGTTVTVSS
VL: B1 VL with N30T, N34T, L46V, H55Y, S59P, T69S, S76N, N92Y, T93S
In the case of B2, the OD in test [1] came out at 2.14 OD 450 nm. For the same molecule, the OD in test [2] amounted to 1.29 OD 450 nm. Further, the EC50 in test [3] turned out to be 0.51 nM. In test [4], the BOTTOM (best-fit value) was 0.0807 OD (450 nm), the EC50 was determined as 0.513 nM, the LOGEC50 is -9.29 log C [M] and the TOP (best-fit value) was 2.64 OD (450 nm).
